Key:
FcγRIIa H [1] = biological target: T1, FcγRIIa H (human, UniProt P12318 34-217); assay: SPR (Biacore); He/Con_2aH divided by He/Con_2b (FcγRIIb) of the same antibody
T1 construct: extracellular domain; Soluble His-tagged extracellular domain expressed in FreeStyle293 cells; also called FcγRIIa type H; FcgRIIa H; not shown: His tag attached to the C terminus
T1 sequence (looked up): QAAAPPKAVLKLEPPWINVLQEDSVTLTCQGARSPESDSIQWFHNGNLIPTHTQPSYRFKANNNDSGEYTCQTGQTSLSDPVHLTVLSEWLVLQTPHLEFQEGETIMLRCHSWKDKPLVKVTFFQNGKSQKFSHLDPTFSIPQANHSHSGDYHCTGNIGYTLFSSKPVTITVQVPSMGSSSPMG
Procedure: The heterodimerized antibodies He Abs in which one of the H chains was introduced with an alteration were assayed for their binding activities to each activating FcγR and inhibitory FcγR according to the method described in Example 4. […] The activating FcγRs in FIGS. 26, 27, 28, and 29 are FcγRIa, FcγRIIa (R), FcγRIIa (H), and FcγRIIIa, respectively.
(§1) Analysis of interaction between objective antibody and the FcγR was carried out using Biacore T100 (GE Healthcare). HBS-EP+ (GE Healthcare) was used as the running buffer, and the measurement temperature was set to 25° C. Chips produced by immobilizing the antigen peptide by the amine coupling method to a Series S Sencor Chip CM5 (GE Healthcare), or alternatively, chips produced by allowing preliminarily biotinylated antigen peptides to interact with and immobilize onto a Series S Sensor Chip SA (certified) (GE Healthcare) were used. Antibodies of interest were captured onto an antigen peptide-immobilized chip, and allowed to interact to each FcγR diluted with running buffer. To regenerate and repeatedly use the chip, the antibodies captured on the chip were washed off by reacting 10 mM glycine-HCl, pH 1.5.

FcγRIIa H [2] = biological target: T1, FcγRIIa H; assay: SPR (Biacore), captured antibody, FcγR analyte; relative to GpH7-A5/GpH7-B3/GpL16-k0 = 100
Procedure: as §1
(§2) The FcγR-binding activity of each antibody was assessed primarily using as an indicator the FcγR-binding activity and dissociation constant for FcγR.

FcγRIIb = biological target: T2, FcγRIIb (human, UniProt P31994 43-217); assay: as above
T2 construct: extracellular domain; Soluble His-tagged extracellular domain expressed in FreeStyle293 cells; also called FcgRIIb; 2b; not shown: His tag attached to the C terminus
T2 sequence (looked up): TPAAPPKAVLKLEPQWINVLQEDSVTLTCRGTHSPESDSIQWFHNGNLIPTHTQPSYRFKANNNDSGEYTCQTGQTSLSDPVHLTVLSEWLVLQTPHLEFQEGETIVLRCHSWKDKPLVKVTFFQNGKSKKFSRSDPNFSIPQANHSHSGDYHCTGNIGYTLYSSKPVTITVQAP
Procedure: as §1, §2

[3] = biological target: T3, FcγRIIIa extracellular domain with C-terminal His tag (human, UniProt P08637 17-208); assay: SPR (Biacore), antibody captured on antigen-peptide chip, FcγR analyte, relative binding
T3 construct: extracellular domain; also called 3a; FcgRIIIa
T3 sequence (P08637 17-208): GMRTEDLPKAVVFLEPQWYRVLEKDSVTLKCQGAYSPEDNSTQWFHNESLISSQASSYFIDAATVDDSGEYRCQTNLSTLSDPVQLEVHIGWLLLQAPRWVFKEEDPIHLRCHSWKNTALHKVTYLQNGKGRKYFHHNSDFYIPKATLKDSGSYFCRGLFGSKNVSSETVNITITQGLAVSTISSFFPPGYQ

B1: GpH7-A5/GpH7-B3 variant A327_03V/GpL16-k0 (antibody, human IgG1, kappa)
heavy 1: not shown
heavy 2: not shown
light: DIVMTQSPLSLPVTPGEPASISCQASESLVHSNRNTYLHWYLQKPGQSPQLLIYKVSNRFSGVPDRFSGSGSGTDFTLKISRVEAEDVGVYYCSQNTHVPPTFGQGTKVEIERTVAAPSVFIFPPSDEQLKSGTASVVCLLNNFYPREAKVQWKVDNALQSGNSQESVTEQDSKDSTYSLSSTLTLSKADYEKHKVYACEVTHQGLSSPVTKSFNRGEC
notes: Heterodimerized anti-glypican-3 IgG1; mutation in the GpH7-B3 H chain only; also called He Ab
**Q.** What does the source list for B1?
**A.** He_2aH/2b (FcγRIIa H [1]): 0.54 ratio; He/Con_2aH (FcγRIIa H [2]): 51 relative (control = 100); He/Con_2b (FcγRIIb): 94.7 relative (control = 100)

B2: GpH7-A5/GpH7-B3 variant S324_01G/GpL16-k0 (heterodimerized antibody, He Ab) (antibody, human IgG1, kappa)
heavy 1: not shown
heavy 2: not shown
light: B1 light
notes: Mutation in one H chain only; also called S324_01G He Ab
**Q.** B2 was tested. Which He/Con_3a [3] did it give?
**A.** 105 % of GpH7-A5/GpH7-B3/GpL16-k0 (=100)

B3: GpH7-B3 variant T335_06M/GpL16-k0 (homodimerized antibody, Ho Ab) (antibody, human IgG1, kappa)
heavy: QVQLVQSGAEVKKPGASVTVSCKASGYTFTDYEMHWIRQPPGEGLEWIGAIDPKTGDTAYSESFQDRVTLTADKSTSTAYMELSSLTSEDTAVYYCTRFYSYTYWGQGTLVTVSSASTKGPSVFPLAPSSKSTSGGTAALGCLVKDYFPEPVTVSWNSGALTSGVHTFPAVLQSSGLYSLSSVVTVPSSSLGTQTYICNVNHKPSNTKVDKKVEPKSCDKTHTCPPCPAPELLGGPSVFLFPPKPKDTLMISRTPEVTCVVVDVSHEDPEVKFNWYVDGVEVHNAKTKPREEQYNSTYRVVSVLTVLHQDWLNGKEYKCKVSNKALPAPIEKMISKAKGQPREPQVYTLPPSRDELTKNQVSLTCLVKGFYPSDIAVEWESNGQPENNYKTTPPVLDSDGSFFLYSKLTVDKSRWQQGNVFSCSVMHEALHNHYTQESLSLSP
light: B1 light
notes: Mutation in both H chains; also called T335_06M Ho Ab
**Q.** B3 was tested. Which Ho/Con_3a [3] did it give?
**A.** 107 % of GpH7-B3/GpL16-k0 (=100)

B4: GpH7-B3 variant S337_16H/GpL16-k0 (homodimerized antibody, Ho Ab) (antibody, human IgG1, kappa)
heavy: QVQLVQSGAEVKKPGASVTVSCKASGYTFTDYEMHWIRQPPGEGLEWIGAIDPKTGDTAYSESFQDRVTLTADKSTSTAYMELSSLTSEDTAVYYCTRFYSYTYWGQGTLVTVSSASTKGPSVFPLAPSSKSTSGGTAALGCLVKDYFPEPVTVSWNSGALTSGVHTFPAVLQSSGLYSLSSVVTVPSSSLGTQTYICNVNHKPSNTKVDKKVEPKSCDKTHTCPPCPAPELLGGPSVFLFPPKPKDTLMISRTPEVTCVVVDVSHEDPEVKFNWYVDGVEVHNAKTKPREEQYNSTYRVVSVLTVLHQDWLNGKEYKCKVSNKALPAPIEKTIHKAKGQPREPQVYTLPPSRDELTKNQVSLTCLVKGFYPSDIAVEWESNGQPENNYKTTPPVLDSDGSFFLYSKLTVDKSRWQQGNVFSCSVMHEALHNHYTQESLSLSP
light: B1 light
notes: Mutation in both H chains; also called S337_16H Ho Ab
**Q.** With B4 as the binder, how does the Ho/Con_3a [3] read?
**A.** 112 % of GpH7-B3/GpL16-k0 (=100)

B5: GpH7-A5/GpH7-B3 variant L328_06M/GpL16-k0 (antibody, human IgG1, kappa)
heavy 1: not shown
heavy 2: not shown
light: B1 light
notes: as for B1
**Q.** B5 was tested. Which He_2aH/2b (FcγRIIa H [1]) did it give?
**A.** 0.73 ratio

**Q.** And the He/Con_2aH (FcγRIIa H [2])?
**A.** 104 relative (control = 100)

**Q.** What about the He/Con_2b (FcγRIIb) of the same binder?
**A.** 142 relative (control = 100)

B6: GpH7-B3 variant T335_05P/GpL16-k0 (homodimerized antibody, Ho Ab) (antibody, human IgG1, kappa)
heavy: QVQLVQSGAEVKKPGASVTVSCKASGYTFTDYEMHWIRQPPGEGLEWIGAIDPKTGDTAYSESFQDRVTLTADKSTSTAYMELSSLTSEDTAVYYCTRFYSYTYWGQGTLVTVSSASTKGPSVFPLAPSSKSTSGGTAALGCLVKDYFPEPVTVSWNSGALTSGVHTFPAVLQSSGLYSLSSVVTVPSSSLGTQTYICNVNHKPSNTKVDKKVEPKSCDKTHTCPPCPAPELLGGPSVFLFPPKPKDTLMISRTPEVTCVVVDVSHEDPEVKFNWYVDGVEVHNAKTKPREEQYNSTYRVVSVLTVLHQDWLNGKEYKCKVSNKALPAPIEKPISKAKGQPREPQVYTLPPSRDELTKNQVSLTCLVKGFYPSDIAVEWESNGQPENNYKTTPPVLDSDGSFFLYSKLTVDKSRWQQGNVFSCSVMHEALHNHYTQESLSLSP
light: B1 light
notes: Mutation in both H chains; also called T335_05P Ho Ab
**Q.** How did the Ho/Con_3a [3] turn out when B6 was run?
**A.** 119 % of GpH7-B3/GpL16-k0 (=100)

B7: GpH7-A5/GpH7-B3 variant I332_10E/GpL16-k0 (antibody, human IgG1, kappa)
heavy 1: not shown
heavy 2: not shown
light: B1 light
notes: as for B1
**Q.** How did the He_2aH/2b (FcγRIIa H [1]) turn out when B7 was run?
**A.** 0.76 ratio

**Q.** And the He/Con_2aH (FcγRIIa H [2])?
**A.** 108 relative (control = 100)

**Q.** What about the He/Con_2b (FcγRIIb) of the same binder?
**A.** 142 relative (control = 100)

B8: GpH7-A5/GpH7-B3 variant A327_07I/GpL16-k0 (antibody, human IgG1, kappa)
heavy 1: not shown
heavy 2: not shown
light: B1 light
notes: as for B1
**Q.** With B8 as the binder, how does the He_2aH/2b (FcγRIIa H [1]) read?
**A.** 0.46 ratio

**Q.** What about the He/Con_2aH (FcγRIIa H [2]) of the same binder?
**A.** 58.4 relative (control = 100)

**Q.** And the He/Con_2b (FcγRIIb)?
**A.** 127 relative (control = 100)

B9: GpH7-A5/GpH7-B3 variant S239_10E/GpL16-k0 (heterodimerized antibody, He Ab) (antibody, human IgG1, kappa)
heavy 1: not shown
heavy 2: not shown
light: B1 light
notes: Mutation in one H chain only; also called S239_10E He Ab
**Q.** Which He/Con_3a [3] does the source give for B9 here?
**A.** 181 % of GpH7-A5/GpH7-B3/GpL16-k0 (=100)

B10: GpH7-A5/GpH7-B3 variant S239_18N/GpL16-k0 (heterodimerized antibody, He Ab) (antibody, human IgG1, kappa)
heavy 1: not shown
heavy 2: not shown
light: B1 light
notes: Mutation in one H chain only; also called S239_18N He Ab
**Q.** For B10, which He/Con_3a [3] is on record?
**A.** 110 % of GpH7-A5/GpH7-B3/GpL16-k0 (=100)

B11: GpH7-A5/GpH7-B3 variant L328_03V/GpL16-k0 (antibody, human IgG1, kappa)
heavy 1: not shown
heavy 2: not shown
light: B1 light
notes: as for B1
**Q.** Which He_2aH/2b (FcγRIIa H [1]) does the source give for B11 here?
**A.** 0.78 ratio

**Q.** And the He/Con_2aH (FcγRIIa H [2])?
**A.** 97.8 relative (control = 100)

**Q.** And the He/Con_2b (FcγRIIb)?
**A.** 126 relative (control = 100)

B12: GpH7-A5/GpH7-B3 variant T335_09D/GpL16-k0 (heterodimerized antibody, He Ab) (antibody, human IgG1, kappa)
heavy 1: not shown
heavy 2: not shown
light: B1 light
notes: Mutation in one H chain only; also called T335_09D He Ab
**Q.** B12 was tested. Which He/Con_3a [3] did it give?
**A.** 108 % of GpH7-A5/GpH7-B3/GpL16-k0 (=100)

B13: GpH7-A5/GpH7-B3 variant L328_09D/GpL16-k0 (antibody, human IgG1, kappa)
heavy 1: not shown
heavy 2: not shown
light: B1 light
notes: as for B1
**Q.** Which He_2aH/2b (FcγRIIa H [1]) does the source give for B13 here?
**A.** 0.29 ratio

**Q.** And the He/Con_2aH (FcγRIIa H [2])?
**A.** 58.5 relative (control = 100)

**Q.** And the He/Con_2b (FcγRIIb)?
**A.** 199 relative (control = 100)

B14: GpH7-A5/GpH7-B3 variant A327_08L/GpL16-k0 (antibody, human IgG1, kappa)
heavy 1: not shown
heavy 2: not shown
light: B1 light
notes: as for B1
**Q.** With B14 as the binder, how does the He_2aH/2b (FcγRIIa H [1]) read?
**A.** 0.74 ratio

**Q.** What about the He/Con_2aH (FcγRIIa H [2]) of the same binder?
**A.** 46.9 relative (control = 100)

**Q.** What about the He/Con_2b (FcγRIIb) of the same binder?
**A.** 63.1 relative (control = 100)

B15: GpH7-A5/GpH7-B3 variant T335_08L/GpL16-k0 (heterodimerized antibody, He Ab) (antibody, human IgG1, kappa)
heavy 1: not shown
heavy 2: not shown
light: B1 light
notes: Mutation in one H chain only; also called T335_08L He Ab
**Q.** With B15 as the binder, how does the He/Con_3a [3] read?
**A.** 102 % of GpH7-A5/GpH7-B3/GpL16-k0 (=100)

B16: GpH7-A5/GpH7-B3 variant S324_09D/GpL16-k0 (heterodimerized antibody, He Ab) (antibody, human IgG1, kappa)
heavy 1: not shown
heavy 2: not shown
light: B1 light
notes: Mutation in one H chain only; also called S324_09D He Ab
**Q.** With B16 as the binder, how does the He/Con_3a [3] read?
**A.** 101 % of GpH7-A5/GpH7-B3/GpL16-k0 (=100)

B17: GpH7-A5/GpH7-B3 variant L328_07I/GpL16-k0 (antibody, human IgG1, kappa)
heavy 1: not shown
heavy 2: not shown
light: B1 light
notes: as for B1
**Q.** With B17 as the binder, how does the He_2aH/2b (FcγRIIa H [1]) read?
**A.** 0.59 ratio

**Q.** What about the He/Con_2aH (FcγRIIa H [2]) of the same binder?
**A.** 93.9 relative (control = 100)

**Q.** What about the He/Con_2b (FcγRIIb) of the same binder?
**A.** 160 relative (control = 100)

B18: GpH7-B3 variant T335_08L/GpL16-k0 (homodimerized antibody, Ho Ab) (antibody, human IgG1, kappa)
heavy: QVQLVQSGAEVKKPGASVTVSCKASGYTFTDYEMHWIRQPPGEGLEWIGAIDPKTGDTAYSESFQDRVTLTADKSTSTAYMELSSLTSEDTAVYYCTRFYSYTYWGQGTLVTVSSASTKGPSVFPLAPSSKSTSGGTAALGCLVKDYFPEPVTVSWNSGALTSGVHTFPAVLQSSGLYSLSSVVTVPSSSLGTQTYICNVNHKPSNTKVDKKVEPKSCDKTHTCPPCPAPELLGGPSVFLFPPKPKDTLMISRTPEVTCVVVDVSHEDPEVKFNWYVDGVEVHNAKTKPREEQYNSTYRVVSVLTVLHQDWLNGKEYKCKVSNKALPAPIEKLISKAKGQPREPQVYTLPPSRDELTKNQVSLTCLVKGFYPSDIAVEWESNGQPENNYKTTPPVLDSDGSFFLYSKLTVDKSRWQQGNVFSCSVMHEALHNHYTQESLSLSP
light: B1 light
notes: Mutation in both H chains; also called T335_08L Ho Ab
**Q.** With B18 as the binder, how does the Ho/Con_3a [3] read?
**A.** 103 % of GpH7-B3/GpL16-k0 (=100)

B19: GpH7-A5/GpH7-B3 variant S324_20W/GpL16-k0 (heterodimerized antibody, He Ab) (antibody, human IgG1, kappa)
heavy 1: not shown
heavy 2: not shown
light: B1 light
notes: Mutation in one H chain only; also called S324_20W He Ab
**Q.** How did the He/Con_3a [3] turn out when B19 was run?
**A.** 102 % of GpH7-A5/GpH7-B3/GpL16-k0 (=100)

Reference: patent publication US20180155451A1 (published 2018)
